As usually defined, the EC50 is the concentration giving half of the maximal effect. High values mean lower potency in that assay, low ones higher potency in that assay. One may read the Kd as the equilibrium constant for the complex coming apart. Read a low Kd as a tighter complex.

Test [1] has as its target T1, CD300c抗原(11832-H08H，义翘神州) (UniProt Q08708).
T1 sequence (looked up): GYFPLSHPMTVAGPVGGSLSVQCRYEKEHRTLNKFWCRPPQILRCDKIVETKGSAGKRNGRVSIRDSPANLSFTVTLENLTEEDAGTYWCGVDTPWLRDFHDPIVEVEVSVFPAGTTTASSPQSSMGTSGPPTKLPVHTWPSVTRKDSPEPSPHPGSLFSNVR
The experiment in a line: binding ELISA, CD300c antigen coated at 8 μg/mL, HRP anti-Fc IgG. A general note: ELISA stands for enzyme-linked immunosorbent assay.

In test [2] the target is T2, CD300c overexpressed on the surface of 293T cells and THP-1 cells (UniProt Q08708).
T2 sequence (looked up): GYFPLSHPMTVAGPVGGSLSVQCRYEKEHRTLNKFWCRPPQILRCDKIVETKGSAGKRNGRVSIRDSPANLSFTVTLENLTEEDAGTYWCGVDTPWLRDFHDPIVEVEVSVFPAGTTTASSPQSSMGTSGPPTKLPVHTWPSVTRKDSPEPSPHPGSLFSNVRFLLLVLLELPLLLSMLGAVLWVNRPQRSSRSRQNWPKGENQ
Put plainly: flow cytometry (FACS binding) on 293T cells overexpressing CD300c, FITC anti-human IgG (H+L), MFI.

The target of test [3] is T2, CD300c overexpressed on the surface of 293T cells and THP-1 cells. Put plainly: flow cytometry (FACS binding) on THP-1 cells overexpressing CD300c, FITC anti-human IgG (H+L), MFI.
The target of test [4] is T1, CD300c抗原(11832-H08H，义翘神州). Put plainly: SPR, CD300c immobilised on CM5 chip (399.2 RU), CL7 0-6.25 μg/mL as analyte. Background: Surface plasmon resonance follows binding to a sensor surface in real time, without labels.
A further test has as its target T3, 小鼠CD300c抗原 (小鼠 (mouse)).
T3 sequence (A2A7V7 whole entry, looked up): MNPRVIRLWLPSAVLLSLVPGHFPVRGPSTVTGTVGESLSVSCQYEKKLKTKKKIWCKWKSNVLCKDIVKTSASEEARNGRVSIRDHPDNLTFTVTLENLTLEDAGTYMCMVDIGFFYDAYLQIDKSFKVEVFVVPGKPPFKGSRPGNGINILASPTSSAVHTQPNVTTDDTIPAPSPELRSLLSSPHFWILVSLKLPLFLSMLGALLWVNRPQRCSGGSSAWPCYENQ
Put plainly: cell-based or functional assay.

Positions count from the first letter of the chain named.

B1: 抗CD300c单克隆抗体 CK1 (antibody, from another filing, V domains shown)
VH: EVQLLESGGGLVQPGGSLRLSCAASGFTFSRYAMTWVRQAPGKGLEWVSSMSGTGGTTYYADSVKGRFTISRDNSKNTLYLQMNSLRAEDTAVYYCARGAYGFDHWGQGTLVTVSS
VL: EIVLTQSPGTLSLSPGERATLSCRASQSIGNYLNWYQQKPGQAPRLLIYDASNLETGIPDRFSGSGSGTDFTLTISRLEPEDFAVYYCQQSSAIPYTFGQGTKVEIK
In test [1], B1 had a concentration giving a half-maximal response (EC50) of 0.056 µg/mL.

B2: 抗CD300c单克隆抗体 SK14 (antibody, from another filing)
chain: EVQLLESGGGLVQPGGSLRLSCAASGFTFSNFAIAWVRQAPGKGLEWVSAISGRGTSTYYADSVKGRFTISRDNSKNTLYLQMNSLRAEDTAVYYCARGVSGFDSWGQGTLVTVSSGGGGSGGGGSGGGGSEIVLTQSPGTLSLSPGERATLSCRASQSISSHLAWYQQKPGQAPRLLIYDTSNRATGIPDRFSGSGSGTDFTLTISRLEPEDFAVYYCQQSYSTPFTFGQGTKVEIK
Take B2: the EC50 in test [1] is 0.065 µg/mL.

B3: 抗CD300c单克隆抗体 CL6 (antibody, from another filing, V domains shown)
VH: EVQLLESGGGLVQPGGSLRLSCAASGFTFSSYGMHWVRQAPGKGLEWVSAISGSGGSTYYADSVKGRFTISRDNSKNTLYLQMNSLRAEDTAVYYCAVSGAGRGFFDYWGQGTLVTVSS
VL: QSVLTQPPSASGTPGQRVTISCSGSSSNIGSNYVYWYQQLPGTAPKLLIYEDNKRPSGVPDRFSGSKSGTSASLAISGLRSEDEADYYCSSYTSSSTVIFGGGTKLTVL
As to B3, the EC50 in test [1] was determined as 0.148 µg/mL.

B4: 抗CD300c单克隆抗体 SK17 (antibody, from another filing, V domains shown)
VH: EVQLLESGGGLVQPGGSLRLSCAASGFTFSSYYWSWVRQAPGKGLEWVSTITGSGGSTDYANSVKGRFTISRDNSKNTLYLQMNSLRAEDTAVYYCATGGGIFDYWGQGTLVTVSS
VL: EIVLTQSPGTLSLSPGERATLSCQASQTISNYLNWYQQKPGQAPRLLIYDASNRATGIPDRFSGSGSGTDFTLTISRLEPEDFAVYYCQQYNSYPPSFGQGTKVEIK
Consider B4, for which the concentration giving a half-maximal response (EC50) in test [1] was determined as 0.054 µg/mL.

B5: 抗CD300c单克隆抗体 CL7 (antibody, from another filing, V domains shown)
VH: EVQLLESGGGLVQPGGSLRLSCAASGFTFSRYAMSWVRQAPGKGLEWVSAISGSGGSTYYADSVKGRFTISRDNSKNTLYLQMNSLRAEDTAVYYCARSSQGIFDIWGQGTLVTVSS
VL: QSVLTQPPSASGTPGQRVTISCSGNNIGTRRVHWYQQLPDTAPKLLIYSKNNRPSGVPDRFSGSKSGTSASLAISGLRSEDEADYYCAAWDDSLSGPVFGGGTKLTVL
Consider B5, for which the values for the EC50 in test [2], in test [1] and in test [3] were 2.7 nM, 0.047 µg/mL and 2.6 nM, respectively. In test [4], the Kd came to 0.52 nM. Also, the 癌细胞增殖抑制作用 (CT26 mouse colorectal cancer cells, CCK-8, 10 μg/mL antibody, 5 days) with 小鼠CD300c抗原 (小鼠 (mouse)) was 66 %.

B6: 抗CD300c单克隆抗体 CL9 (antibody, from another filing, V domains shown)
VH: B5 VH with R31S, A33Y, M34W, S99I, S100D, Q101V, G102Y, I103G
VL: QSVLTQPPSASGTPGQRVTISCSGSTSNIGTNYVYWYQQLPGTAPKLLIYDNNNRPSGVPDRFSGSKSGTSASLAISGLRSEDEADYYCQTWDSSTDVVFGGGTKLTVL
For the molecule B6, in test [1], the half-maximal effective concentration (EC50) was 0.094 µg/mL.

B7: 抗CD300c单克隆抗体 CL5 (antibody, from another filing, V domains shown)
VH: RVQLLESGGGLVQPGGSLRLSCAASGFTFSSYAMHWVRQAPGKGLEWVSSISGGGYGTYYADSVKGRFTISRDNSKNTLYLQMNSLRAEDTAVYYCARSTVWAFDIWGQGTLVTVSS
VL: QSVLTQPPSASGTPGQRVTISCSGNNIGSKSVHWYQQLPGTAPKLLIYDVSKRPSERPDRFSGSKSGTSASLAISDLRSEDEADYYCQSFDSSGTWIFGGGTKLTVL
The molecule B7 gave an EC50 in test [1] of 0.032 µg/mL.

B8: 抗CD300c单克隆抗体 CL10 (antibody, from another filing, V domains shown)
VH: EVQLLESGGGLVQPGGSLRLSCAASGFTFSSYGMHWVRQAPGKGLEWVSAISGSGGSTYYADSVKGRFTISRDNSKNTLYLQMNSLRAEDTAVYYCASGYGLMDVWGQGTLVTVSS
VL: QSVLTQPPSASGTPGQRVTISCTRSSGIIASNYVQWYQQLPGTAPKLLIYRNNQRPSGVPDRFSGSKSGTSASLAISGLRSEDEADYYCSSYAGNNNLVFGGGTKLTVL
Take B8: in test [1], the EC50 is 0.039 µg/mL. In the test with 小鼠CD300c抗原 (小鼠 (mouse)), the 癌细胞增殖抑制作用 (CT26 mouse colorectal cancer cells, CCK-8, 10 μg/mL antibody, 5 days) was 15 %.

B9: 抗CD300c单克隆抗体 SK11 (antibody, from another filing, V domains shown)
VH: B8 VH with E1R, S31T, S98R, Y100L, G101S, L102G, M103L, V105Y
VL: B4 VL with Q24R, A25S, T28G, S30T, N34A, Y91S, N92Y, Y94T, P96L, S97T
In turn, B9 registered an EC50 in test [1] of 0.052 µg/mL.

B10: 抗CD300c单克隆抗体 CK2 (antibody, from another filing, V domains shown)
VH: B8 VH with G56T, T58I, S98R, Y100G, G101T, L102A, M103F, V105Y
VL: EIVLTQSPGTLSLSPGERATLSCRASQRSDNYLAWYQQKPGQAPRLLIYDASNRATGIPDRFSGSGSGTDFTLTISRLEPEDFAVYYCQQSYSTPFTFGQGTKVETK
B10 had an EC50 in test [1] of 0.033 µg/mL.

B11: 抗CD300c单克隆抗体 SK15 (antibody, from another filing, V domains shown)
VH: B8 VH with E1R, G33A, S52N, M83T, S98R, Y100L, G101Q, L102G, M103F, V105Y
VL: B1 VL with R24Q, S28D, G30T, N53S, S92Y, A93S, I94T, Y96I
The molecule B11 yielded an EC50 in test [1] of 14.7 µg/mL.

B12: 抗CD300c单克隆抗体 SK13 (antibody, from another filing, V domains shown)
VH: RVQLLESGGGLVQPGGSLRLSCAASGFTFSDYAMSWVRQAPGKGLEWVSSISSSSSYIYYTDSVKGRFTISRDNSKNTLYLQMNSLRAEDTAVYYCARGGYGFDYWGQGTLVTVSS
VL: EIVLTQSPGTLSLSPGERATLSCRASQSISSYLNWYQQKPGQAPRLLIYSASSRPQGIPDRFSGSGSGTDFTLTISRLEPEDFAVYYCQQYDDLPFTFGQGTKVEIK
As to B12, in test [1], the half-maximal effective concentration (EC50) amounted to 0.044 µg/mL.

B13: 抗CD300c单克隆抗体 SK16 (antibody, from another filing, V domains shown)
VH: RVQLLESGGGLVQPGGSLRLSCAASGFTFSSYAMSWVRQAPGKGLEWVSAINGSGGSTLYADSVKGRFTISRDNSKNTLYLQMNSLRAEDTAVYYCARGVSGFDSWGQGTLVTVSS
VL: B10 VL with A25I, R28S, S29I, D30S, N31S, A34N, N53L, S93K, F96I, T106I
For B13, in test [1], the EC50 worked out at 2.42 µg/mL.

B14: 抗CD300c单克隆抗体 SK12 (antibody, from another filing)
chain: RVQLLESGGGLVQPGGSLRLSCAASGFTFSSYAMHWVRQAPGKGLEWVSAISGSGGDTYHADSVKGRFTISRDNSKNTLYLQMNSLRAEDTAVYYCTRGLSGFDYWGQGTLVTVSSGGGGSGGGGSGGGGSEIVLTQSPGTLSLSPGERATLSCRASQSISSYLNWYQQKPGQAPRLLIYDASNRAPGIPDRFSGSGSGTDFTLTISRLEPEDFAVYYCQQSYSIPITFGQGTKVEIK
In test [1], B14 came in with an EC50 of 0.067 µg/mL.

B15: 抗CD300c单克隆抗体 CK3 (antibody, from another filing, V domains shown)
VH: RVQLLESGGGLVQPGGSLRLSCAASGFTFSSYAISWVRQAPGKGLEWVSATSGSGRATYYADSVKGRFTISRDNSKNTLYLQMNSLRAEDTAVYYCARDTWWEGYFDLWGQGTLVTVSS
VL: EIVLTQSPGTLSLSPGERATLSCQASHISTHLNWYQQKPGQAPRLLIYGASSRATGIPDRFSGSGSGTDFTLTISRLEPEDFAVYYCQQYNTYPPTFGQGTKVEIK
B15 yielded an EC50 in test [1] of 0.793 µg/mL.

B16: 抗CD300c单克隆抗体 SL18 (antibody, from another filing)
chain: RVQLLESGGGLVQPGGSLRLSCAASGFTFSDYHMHWVRQAPGKGLEWVSTISSSGGYTYYAESVKSRFTISRDNSKNTLYLQMNSLRAEDTAVYYCARSIRLPLDYWGQGTLVTVSSSGGGSGGGGSGGGGSQSVLTQPPSASGTPGQRVTISCSGNNIGSKGVHWYQQLPGTAPKLLIYEDSKRPSGVRDRFSGSKSGTSASLAISGLRSEDEADYYCQSYDSTKGVVFGGGTKLTVL
Molecule B16 showed an EC50 in test [1] of 0.17 µg/mL. Moreover, in the test with 小鼠CD300c抗原 (小鼠 (mouse)), the 癌细胞增殖抑制作用 (CT26 mouse colorectal cancer cells, CCK-8, 10 μg/mL antibody, 5 days) was 38 %.

B17: 抗CD300c单克隆抗体 CL4 (antibody, from another filing, V domains shown)
VH: RVQLLESGGGLVQPGGSLRLSCAASGFTFGSNYMSWVRQAPGKGLEWVSTISGSGTSTYYADSLKGRFTISRDNSKNTLYLQMNSLRAEDTAVYYCARGMWGMDVWGQGTLVTVSS
VL: QSVLTQPPSASGTPGQRVTISCTGKHRHTVNWYQLLPGTAPKLLIYLDSERPSGVPDRFSGSKSGTSASLAISGLRSEDEADYYCQSYDSSSVVFGGGTKLTVL
For B17, the EC50 in test [1] was determined as 0.031 µg/mL.

The values above are taken from patent CN117751141A.
